Read-outs that look alike come from different tables or passages of the source.

Assay [1] addresses T1, MBP:Hts^FL (Drosophila (S2 cell cDNA library)).
T1 chain: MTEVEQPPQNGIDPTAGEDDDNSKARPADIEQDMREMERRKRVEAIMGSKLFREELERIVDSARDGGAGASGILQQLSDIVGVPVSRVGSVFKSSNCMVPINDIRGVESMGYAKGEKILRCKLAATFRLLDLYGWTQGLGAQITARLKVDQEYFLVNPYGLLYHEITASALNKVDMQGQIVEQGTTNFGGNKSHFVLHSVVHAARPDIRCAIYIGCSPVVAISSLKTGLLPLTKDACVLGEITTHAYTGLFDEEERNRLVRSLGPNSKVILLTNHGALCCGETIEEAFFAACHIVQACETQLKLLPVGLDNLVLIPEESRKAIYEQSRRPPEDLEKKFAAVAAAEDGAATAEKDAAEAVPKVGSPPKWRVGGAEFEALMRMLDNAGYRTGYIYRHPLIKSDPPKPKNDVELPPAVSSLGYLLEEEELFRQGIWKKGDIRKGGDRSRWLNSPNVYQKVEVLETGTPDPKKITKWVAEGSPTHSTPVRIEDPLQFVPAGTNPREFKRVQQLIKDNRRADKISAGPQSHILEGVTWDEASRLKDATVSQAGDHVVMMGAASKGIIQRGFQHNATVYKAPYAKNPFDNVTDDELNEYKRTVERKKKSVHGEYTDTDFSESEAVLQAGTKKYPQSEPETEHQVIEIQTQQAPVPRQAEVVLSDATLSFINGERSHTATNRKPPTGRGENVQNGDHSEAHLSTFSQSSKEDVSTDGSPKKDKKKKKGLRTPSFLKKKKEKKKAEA

The target in assay [2] is T2, GST-fused Pins^TPR domains (Drosophila (S2 cell cDNA library), UniProt Q9VB22 1-658).
T2 chain: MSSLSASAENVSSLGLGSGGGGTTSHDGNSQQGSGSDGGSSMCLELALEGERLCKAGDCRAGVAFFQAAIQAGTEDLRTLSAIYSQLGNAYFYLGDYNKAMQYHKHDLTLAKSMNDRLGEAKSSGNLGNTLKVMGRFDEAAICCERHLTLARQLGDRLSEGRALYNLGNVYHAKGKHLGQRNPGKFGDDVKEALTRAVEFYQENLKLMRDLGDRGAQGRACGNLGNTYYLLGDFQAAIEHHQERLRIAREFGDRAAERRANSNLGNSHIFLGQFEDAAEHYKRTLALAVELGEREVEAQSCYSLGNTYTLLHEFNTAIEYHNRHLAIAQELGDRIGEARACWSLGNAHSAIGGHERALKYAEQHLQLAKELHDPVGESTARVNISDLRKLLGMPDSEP

In the next assay the target is T3, MBP:Hts^1-319 (Drosophila (S2 cell cDNA library)).
T3 chain: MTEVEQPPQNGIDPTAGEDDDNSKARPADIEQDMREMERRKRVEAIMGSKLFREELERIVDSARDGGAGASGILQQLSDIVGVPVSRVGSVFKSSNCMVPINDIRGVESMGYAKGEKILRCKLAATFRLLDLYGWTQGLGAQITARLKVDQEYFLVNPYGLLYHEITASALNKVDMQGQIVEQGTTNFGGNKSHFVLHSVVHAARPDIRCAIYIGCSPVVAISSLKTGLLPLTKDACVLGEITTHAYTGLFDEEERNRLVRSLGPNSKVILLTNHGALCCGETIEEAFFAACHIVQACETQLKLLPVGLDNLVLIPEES

Assay [3] deals with T1, MBP:Hts^FL.
The next assay has as its target T4, MBP:Hts^ALDO (Drosophila (S2 cell cDNA library)).
T4 chain: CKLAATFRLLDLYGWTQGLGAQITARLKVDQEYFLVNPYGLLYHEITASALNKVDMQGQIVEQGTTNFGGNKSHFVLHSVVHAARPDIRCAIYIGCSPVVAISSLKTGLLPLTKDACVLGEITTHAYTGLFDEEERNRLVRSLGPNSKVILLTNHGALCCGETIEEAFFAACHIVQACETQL

B1: Mud^CC-PBD (domain or fragment)
chain: KLALDCKILQAKYRDAKDEIKRCEKKIKDQRLEMEGKLEKMKNKMRSLYTAEVTRMKEKQERDAAKSASELEALTAQNAKYEEHTRKLSNQIVRLNEKILEQQKQHAIISTNLRHLQMQPISETKPSSTTLTVSSSSSAPNDDWQPFKRPNVPSSNLAMEDEEGEVFNNTYLTDLKLGRVPADMTAEELIYRNSLQPPHLKST
modifications: 6xHis tag removed by TEV. Limits not printed: start set just before L1788 (N-terminal end of the CC), end at the conventional PBD boundary (about 1982). Needs the NB isoform that includes the CC and PBD exons. Three copies follow from the predicted parallel trimer.
As to B1, the dissociation constant (Kd) in the assay with MBP:Hts^FL [1] turned out to be 1620 nM; in assay [2], 186 nM; with MBP:Hts^1-319 it was 550 nM; with MBP:Hts^FL [3], 620 nM; with MBP:Hts^ALDO, 760 nM.

B2: Mud^CC-PBD L1788E/I1878D (ED) mutant (domain or fragment)
chain: KLALDCKIEQAKYRDAKDEIKRCEKKIKDQRLEMEGKLEKMKNKMRSLYTAEVTRMKEKQERDAAKSASELEALTAQNAKYEEHTRKLSNQIVRLNEKDLEQQKQHAIISTNLRHLQMQPISETKPSSTTLTVSSSSSAPNDDWQPFKRPNVPSSNLAMEDEEGEVFNNTYLTDLKLGRVPADMTAEELIYRNSLQPPHLKST
modifications: 6xHis tag removed by TEV. The mutations disrupt the coiled-coil trimer. Limits not given, set by convention as for the wild type.
In assay [2], B2 had a Kd of 189 nM.

A word on the Kd: it is the equilibrium constant for the complex coming apart.

These data come from PMC10467427 (2023).
